Assay: yeast display, Sf9 membrane polyspecificity reagent, FACS + sequencing; frameworks hold sequencing errors
Outline: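 In a synthetic yeast display library (Saccharomyces cerevisiae BJ5465), nanobody expression was induced with galactose for 36–48 hours. FACS gates were set low and high (top ~1%) using anti-HA fluorescence for expression and streptavidin fluorescence for binding of the Sf9 membrane reagent. Each polyreactivity label is drawn from the gate of origin.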

Sequence | polyreactivity (PSR sort gate)
EEELVESGGGLVQAGGSLRLSCAASGIIFGYYAMGWYRQAPGKERELVAAITRSGSSTYYADSVKGRFTISRDNAKNTVYLQMNSLKPEDTAVVSCAADNFYQAYGYWGQGTQVTVSS | low polyreactivity
EEELVESGGGLVQAGGSLRLSCAASGSIFQYNAMGWYRQAPGKDRELVAVISWSGDTYYADSVKGRFTISRDNAKNTVYLQMNSLKPEDTAVYYCNAVQYTFTSEYGYWGQGTQVTVSS | low polyreactivity
EEELVESGGGLVQAGGSSLRLSCAASGFIFVSNAMGWYRQAPGKERELVASIRWSDGSTFDADSVKGRFTNSRDNAKNTVYLQMNSLKPEDTAVYYCNAVYEHRRVGWVTIDYGYWGQGTQVTVSA | low polyreactivity
EEQLVESGGGLVQPGGSLRLSCAASVYIYSRYRMGWYRQAPGKGREFVAAISGGSSPNYADCVKGRFTISRDNSKNTVYLQMNSLRAEDTAVYYCAAYKIDSDPRVYWGQGTQVTVSS | low polyreactivity
EVQLVESGGGLVHAGGSLRLICAASGFTFTGYTMGWYRQAPGKERELVATISGSGGNTYYADSVKGRFTISRDNAKNTVYLQINSVKPEDTAVYYCARLRSGPRVLYYYWGQGTQVTVSS | low polyreactivity
EVQLVESGGGLVQAGGSLRLSCAASGFTFGVYARGWYRQAPGKERELVAAITWGDGSTYYADSVKGRFTISRDNAKNTVYLQMNSLKPEDTAVYYCNAVTRRHKYYYWGQGTQVTVSS | high polyreactivity
EVQLVESGGGLVQAGGSLRLSCAASGFTFSYNAMGWYRQAPGKERELVAAIDWGGGSTYADSVKGRFTISRDNAKNTVYLQMNSLKPEDTAVYYCAAYIPSSGRNPEIGVEYDYWGQGTQVTVSS | low polyreactivity
EVQLVESGGGLVQAGGSLRLSCAAYGSTFSTYAMGWYRQAPGKERELVAAISFGGGSTYADSVKGRFTISRDNAKNTVYLQMNSLKPEDTAVYYCNTDLYLYGWYPRDVQQYAGGDYWGQGTQVTVSS | low polyreactivity
EVQLVESGGGLVQPGGSLRLSCAASGYIYRRYRMGWYRQAPGKGREFVAAISGGSSTNYADSVTGRFTISRDNSKNTVFLQMNSLRAEDTAVYYCAAYKIDSYPRVYWGQGTQVTVSS | low polyreactivity
FVQAGGSLRLSCAASGFIFGVYDMGWYRQAPGKERELVAAIDSVGSTYYADSVKGRFTISRDNAKNTVYLQMNSLNPEDTAVYYCAKDGSYQAYGYWGQGTQVTVSS | low polyreactivity
HDQHVESAGGLVQAGGSLRLSCAASGFILRWYAMGWYRQAPGKERELVAAISWSGGSTYYADSVKGRFTISRDNAKNTVYLQMNSEKPEVTAVYYCNAVNYRNKYDYWGQGTQVTVSS | high polyreactivity
HEQLQESGGGLVQAVGSLRLSCAASGHISRSSTMGWYRQAPGKERELVTAITRGTNTNYADSVKGRFTISRDNAKNSEYLQMNSLKPEDTAVYYCAAYGVLKPSRGDAVFHRYWGQGTQVTVSR | low polyreactivity
HEQLVESGGGLVQAGGSLRLICAASGRIFPRYAMGRYRQAPGKEMELVAAITKRDGSTYYADSVKGRFTISRDNAKNTVYLQMNSLKPEDSAVYYCATRRLYSKSWYYYWGQGTQVTVSS | high polyreactivity
HFQLVESGGRLVQAGGSIRLSCAASGRIFRPNAMGWYRQAPRKERQLVAAISYSGATTYYADSVKGRFTISRDNEKNTVYLQMNSLKPEDTAVYYCAACGTSAKEFGYWGQGTQVTVSS | low polyreactivity
HVELVEAGGGVVQAGGSLRLSCAASGRIFRYYVMGWYRPAPGKEREFVASISGRGASTYYADSVKGRFTISRDNAKNTVYIKRNSLKPEDTAVYYCNADVWLLSYVPEYDYWGQGTQVTVSS | low polyreactivity
HVHLVESGGGLVQAGGSLRLSCAASARTFWRYAMGRKRQAPGKERELVAAISVSGGTTYYADAVKGRFTISRDNAQNTVYLQMISLKPEATAVYYCAARYWHSYGYWGQGTQVTVSS | high polyreactivity
HVKLQESGDGLVQAGGSLRLSSAPSGTIYSDYGMGGSRQAPGKERELLAGISDGCNTNYTDSVKGRFTISRDNAHRVSADEQPETGGYRGVLLRGSERWLLFYVYWGQGTQVTVSS | high polyreactivity
HVPLVESGGGLVQAGGSLRLSCAASGSTFSVNVLGWYRLAAGKERELVAAITQAGGSTYYADSVKGRFSISRDTAKNTVYLQMNSLKPEDTAGYYCAVEKWSVYSFFLEGADYWGQGTQLTVSS | low polyreactivity
HVQIVESGGGLVQAGGRLRLSCAASGSTFHDYAMGWYRQATGQERELVAAISNSGGSTYYADSVKARFTISRDNAKNTVYLQMKSQKPEYTAVYYCAADGRWYWDYEYWGQGTQVTVSS | low polyreactivity
HVQLEDSGGGLVQAGGRLRITCAASGRSSETNDMGWYRQAPGKERELVAAISSSGGSTYYADSVKGRFTISRDNAKNTVYLQMNSLQPEDTAVYYCYAVYYRTVLKIGVYEYDYWGQGTQVTVSS | low polyreactivity
HVQLEETGRGLVQAGGSLRISCAASGRIFEYYAMGWYRQAPGKDRELVAAITSSTGSTSYADSVKGRFTISRDNEKNTVYLQMNSLKPEDTAVYYCAADVWFFSKLSRYDYWGQGTQVTVSS | low polyreactivity
HVQLGESGGGLVQAGGSLRLSCAASGFIFTAYVMGWYRQAPGKERELVAAISRSGGSTYYADSVKGRFTISRDNAKHTVYLQMNSLKPEDTAVYYCAKLRRDARYDYWGQGTQVTVSS | high polyreactivity

Sequence | polyreactivity (PSR sort gate)
HVQLQEIGGGLVQAGDSQRLSCAASGNIFRFTDMGRYRQAPGKERELVAAINAGSTTYYAASVKGRFTISRDNAKNTVYLQMNSLKPEDTAVYYCNALYSYKYGRKYDYWGQGTQVTVSS | high polyreactivity
HVQLQESAGGLVQAGGSLRLSCAASGTISSREAMGWYSQAPGKERDFVATIASGTTTYYADSVKGSFTISRDNAENTVYLQTNTLKPEDTAVYYCAAPTIQIYPFYYWGHGTQVTVSS | high polyreactivity
HVQLQESGGGLLQAGGSLRLSCAASGSIFQATYMGWYRQATGKEREFVASITYGSITNYADSVKGRFTIGRDNAKDTLYLQMNSLKPEFTAVYYCAVARHYIPAFHYWGQGTQVTVSS | low polyreactivity
HVQLQESGGGLVQAGGSLRLSCAASGSIFQATYMGWYRPAPGKEREFVASITYGSITNYADSVKGRFTIGRDNAKDTLYLQMNSLKPEDTAVYYCAAVGRRRTTVGRYVRMDYWGQGTQVTVSS | low polyreactivity
HVQLVESGGGLVQAAGSLRLSCAASGRIFSAYAMGWYRQAPGKEREFVAAITQSGGSTYYAESVKGRFTISRDNAKNTVYLQMNSLKPEDTAVYYCAAGDAYYTEALPFGEYDYWGQGTQVTVSS | low polyreactivity
HVQLVESGGGLVQAGGRLRLSCAASASIFDSNAMGWYRQAPGKERELVADIRGIGGSTYYADSVKGRFTISRDNAKNTVYLQMNSLKPEDTAVYYCNTSTLGGYYWGQGTQVTVSS | low polyreactivity
HVQLVESGGGLVQAGGSLRISCAASGITFYAYAMGWYRQAPGKERELVAAITRRGGSTRYADSVKGRFTITRDNAKNTVYLQMNSLKPEDTAVYYCNARSGRYFLGYGYWGQGTQVTVSS | high polyreactivity
HVQLVESGGGLVQAGGSLRLSCAASGFIFRYYAMGWYRQAPGKERELVAAISWSGTPTFYADSVKGRFTISRDNAKNTVYLQMNSLKPEDTAVYYCAAETTGYDSYIQYEYWGQGTQVTVSS | high polyreactivity
HVQLVESGGGLVQAGGSLRLSCAASGFTFGYYAMGWYRQAPGKERELVAAISSSGGSTYYADSVKGRFTISRDNAKNTVYLQMNSLKPEDTAVYFCAVVVFSRVYRYFTSDYWGQGTQVTVSS | high polyreactivity
HVQLVESGGGLVQAGGSLRLSCAASGIIFGAYALGWYRQAPGKERELVAAITYSSGSTYYADSVKGRFTISRDNAKNTVYLQMNSLKPEDTAVYYCAKTNFSQSSRYNYDYWGQGTQVTVSS | low polyreactivity
HVQLVESGGGLVQAGGSLRLSCAASGRIFGYNAMGWYRQAPGKEREFVATITYNDGSTYYADSVKGRFTMSRDNAKNTVYLQMNSLKPEDTAVYYCAADLIWTVYGWKYDYWGQGTHVTVSS | low polyreactivity
HVQLVESGGGLVQAGGSLRLSCAASGRIFRINVMGWCRQAPGKERELVAAISGRGGSTYYADSVKGRFTISRDNAQNTDYLQMNRLKPEDTAVYYFAARSPYRYYYWGQGTQVTVSS | high polyreactivity
HVQLVESGGGLVQAGGSLRLSCAASGRILSRNAMGRYRPAPGKERELVAAISISGGSTYYADSVKGRFTISRDNAKNTVYLQRNSLKPEDTAVYYCNTAYYGYRKYDYWGQGTQVTVSS | high polyreactivity
HVQLVESGGGLVQAGGSLRLSCAASGRTFLGNAMGWYRQAPGKERQLVAVITGSGARTYYADSEKGRFTISRDNAKNTVYLQMNSLKPEDTAVYYCAAAGFSGQYRSYYWGQGTQVTVSS | high polyreactivity
HVQLVESGGGLVQAGGSLRLSCAASGSIFSENTMGWYRQAPGKEWELVAAISWSGGSTNYADSVKGRFTISRDNAKNTVYLQMNSLKPEDTAVYYCAKDVGSADPTYYYWGQGTQVTVSS | low polyreactivity
HVQLVESGGGLVQAGGSLRLSCAASGSTFFKYGMGWNRQAPGKERELVASITSRTGSTYYADSVKGRFTISRDNAKNTVYLQMKSLKPEDTAVYYCNVRRGGGYRYGARTFIYGHWGEGTQVTVSS | high polyreactivity
HVQLVESGGGLVQAGGSLRLSCAASGSTFGQYTMGWYRQAPGKERELVATISSGGSTYYADSVKGRFTISRDNAKHTVYLQMNSLKPEDTAVYYCAARYWSIYDYWGQGTQVTVSS | low polyreactivity
HVQLVESGGGLVQAGGSLRLSCAASGSTFNINAMVWYRQAPGKERELFAAISWSGDITYYADSVKGRFTISRDNAKNTVYLLMISLKPEDTAVYYCNTDDPGNYWYAEYDYWGQGTQVTVSS | low polyreactivity
HVQLVESGGGLVQAGGSLRLSCAASGSTFNRYAMGWYRQAPGKERELVAAITERGGSTYYADSVKGRFTISRDNAKNTVYLQMNRLIPEDTAVYYCAARSKYYRSTPFVSDYWGQGTQVTVSS | high polyreactivity
HVQLVESGGGLVQAGGSLRLSCAASGSTFSRYAMGWYRQAPGKERELVAAISSSGGSTYYADSVKGRFTISRDNAKNTVYLQMNSLKPEDTAVYYCAARQYFFSSWRFDYWGQGTQVTVSS | high polyreactivity
HVQLVESGGGLVQAGGSLRLSCAASGSTLWYNAMGWNRQAPGKERELVAVITWTGGSTYYADSVKGRFTISRDNAKNTVYLQMNSLKPEDTAVYYCAVRWYFGNRYKYYYWGQGTQVTVSS | high polyreactivity

Source: the nanobody polyreactivity screen of Harvey et al. (2022)
